Results taken from article PMC2756588.

T1: Bud14, P27637
T1 sequence (P27637 247-328, looked up): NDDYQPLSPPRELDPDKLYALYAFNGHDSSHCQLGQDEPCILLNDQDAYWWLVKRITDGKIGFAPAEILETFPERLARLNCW

T2: Cyk3, Q07533
T2 sequence (Q07533 1-83, looked up): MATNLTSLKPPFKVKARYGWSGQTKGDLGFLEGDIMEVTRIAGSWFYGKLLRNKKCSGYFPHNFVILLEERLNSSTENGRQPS

T3: Myo5, Q04439
T3 sequence (Q04439 1072-1160, looked up): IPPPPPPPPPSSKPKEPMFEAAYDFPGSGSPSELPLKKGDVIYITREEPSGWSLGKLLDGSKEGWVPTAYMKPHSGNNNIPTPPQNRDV

T4: Lsb4, P32793
T4 sequence (P32793 402-468, looked up): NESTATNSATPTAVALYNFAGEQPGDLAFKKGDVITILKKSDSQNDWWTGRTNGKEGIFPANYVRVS

T5: Sla1-3, P32790
T5 sequence (P32790 344-424, looked up): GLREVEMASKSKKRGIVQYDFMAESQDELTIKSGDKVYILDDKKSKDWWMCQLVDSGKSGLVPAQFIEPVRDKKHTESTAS

T6: Abp1, P15891
T6 sequence (P15891 535-592, looked up): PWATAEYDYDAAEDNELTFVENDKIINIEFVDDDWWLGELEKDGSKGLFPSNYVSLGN

T7: Bzz1-2, P38822
T7 sequence (P38822 568-633, looked up): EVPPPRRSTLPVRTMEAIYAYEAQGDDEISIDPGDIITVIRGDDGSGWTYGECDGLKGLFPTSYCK

T8: Boi2, P39969
T8 sequence (P39969 32-116, looked up): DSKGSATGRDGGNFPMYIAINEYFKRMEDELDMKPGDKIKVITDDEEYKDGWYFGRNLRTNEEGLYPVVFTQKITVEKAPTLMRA

T9: Lsb3, P43603
T9 sequence (P43603 385-451, looked up): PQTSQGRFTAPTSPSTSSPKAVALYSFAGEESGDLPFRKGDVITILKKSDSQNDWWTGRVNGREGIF

T10: Boi1, P38041
T10 sequence (P38041 1-86, looked up): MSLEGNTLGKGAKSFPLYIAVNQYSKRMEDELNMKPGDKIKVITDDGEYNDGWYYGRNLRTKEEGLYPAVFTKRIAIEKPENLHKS

T11: Cdc25, P04821
T11 sequence (P04821 50-136, looked up): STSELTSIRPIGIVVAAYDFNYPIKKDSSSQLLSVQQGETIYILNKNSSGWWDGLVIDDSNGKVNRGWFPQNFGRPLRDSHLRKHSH

T12: Sla1-2, P32790
T12 sequence (P32790 60-140, looked up): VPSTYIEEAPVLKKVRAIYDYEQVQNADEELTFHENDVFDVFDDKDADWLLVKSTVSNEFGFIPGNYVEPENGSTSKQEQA

T13: Fus1, P11710
T13 sequence (P11710 432-512, looked up): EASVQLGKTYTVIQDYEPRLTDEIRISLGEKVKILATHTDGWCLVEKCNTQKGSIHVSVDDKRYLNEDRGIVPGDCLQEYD

T14: Nbp2, Q12163
T14 sequence (Q12163 103-180, looked up): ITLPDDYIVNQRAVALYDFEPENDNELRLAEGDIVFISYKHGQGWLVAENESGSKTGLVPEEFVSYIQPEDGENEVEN

T15: Bbc1, P47068
T15 sequence (P47068 1-78, looked up): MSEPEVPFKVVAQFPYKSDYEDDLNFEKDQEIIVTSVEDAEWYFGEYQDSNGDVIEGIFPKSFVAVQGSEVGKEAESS

T16: Pin3, Q06449
T16 sequence (Q06449 53-122, looked up): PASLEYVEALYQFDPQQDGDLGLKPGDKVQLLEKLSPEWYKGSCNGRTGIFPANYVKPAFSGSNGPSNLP

T17: Bzz1-1, P38822
T17 sequence (P38822 478-572, looked up): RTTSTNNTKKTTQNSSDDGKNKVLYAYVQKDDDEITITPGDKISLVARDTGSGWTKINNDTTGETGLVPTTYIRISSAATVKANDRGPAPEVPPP

T18: Pex13, P80667
T18 sequence (P80667 295-386, looked up): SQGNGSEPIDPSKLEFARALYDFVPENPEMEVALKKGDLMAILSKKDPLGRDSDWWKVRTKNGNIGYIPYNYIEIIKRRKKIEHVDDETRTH

T19: Hof1, Q05080
T19 sequence (Q05080 590-669, looked up): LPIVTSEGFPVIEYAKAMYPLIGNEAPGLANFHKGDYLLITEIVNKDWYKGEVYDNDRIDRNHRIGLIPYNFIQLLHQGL

T20: Lsb1, P53281
T20 sequence (P53281 45-122, looked up): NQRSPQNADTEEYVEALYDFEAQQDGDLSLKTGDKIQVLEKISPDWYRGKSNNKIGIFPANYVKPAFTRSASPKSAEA

T21: Hse1, P38753
T21 sequence (P38753 208-285, looked up): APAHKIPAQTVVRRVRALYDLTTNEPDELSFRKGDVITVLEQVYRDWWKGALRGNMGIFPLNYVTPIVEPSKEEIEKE

B1: unnamed (peptide)
chain: FPGKKSPRLPHRNKK
B2: unnamed (peptide)
chain: AAAPKHAPPPVPNET
B3: unnamed (peptide)
chain: VQKRKLPLPGSIASA
B4: unnamed (peptide)
chain: APKHAPPPVPNETDN
B5: unnamed (peptide)
chain: STKKPRPPVKSKPKH
B6: unnamed (peptide)
chain: TEVPIPRRPPPPQAA

These binders were tested against T1, Bud14, P27637 (assay: SPOT array). Conditions: median of control spots 956.

Row | SPOT intensity | Binder
1 | 22 | B1
2 | 0 | B2
3 | 0 | B3
4 | 0 | B4
5 | 3 | B5
6 | 0 | B6

Each binder was assayed against T2, Cyk3, Q07533 (assay: SPOT array). Conditions: median of control spots 1451.

Row | SPOT intensity | Binder
7 | 3 | B1
8 | 0 | B2
9 | 0 | B3
10 | 0 | B4
11 | 3 | B5
12 | 0 | B6

These binders were tested against T3, Myo5, Q04439 (assay: SPOT array). Conditions: median of control spots 471.

Row | SPOT intensity | Binder
13 | 0 | B1
14 | 376 | B2
15 | 0 | B3
16 | 239 | B4
17 | 0 | B5
18 | 141 | B6

What follows are binders tested against T4, Lsb4, P32793 (assay: SPOT array). Conditions: median of control spots 397.

Row | SPOT intensity | Binder
19 | 225 | B1
20 | 0 | B2
21 | 13 | B3
22 | 0 | B4
23 | 0 | B5
24 | 108 | B6

Each binder was assayed against T5, Sla1-3, P32790 (assay: SPOT array). Conditions: median of control spots 5475.

Row | SPOT intensity | Binder
25 | 12 | B1
26 | 0 | B2
27 | 4 | B3
28 | 0 | B4
29 | 5 | B5
30 | 0 | B6

What follows are binders tested against Rvs167, P39743 (assay: SPOT array). Conditions: median of control spots 2707.
Sequence of Rvs167, P39743 (P39743 419-482): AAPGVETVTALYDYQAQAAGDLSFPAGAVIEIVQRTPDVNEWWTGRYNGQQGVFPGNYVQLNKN

Row | SPOT intensity | Binder
31 | 314 | B1
32 | 0 | B2
33 | 0 | B3
34 | 0 | B4
35 | 12 | B5
36 | 0 | B6

These binders were tested against T6, Abp1, P15891 (assay: SPOT array). Conditions: median of control spots 935.

Row | SPOT intensity | Binder
37 | 175 | B1
38 | 0 | B2
39 | 157 | B3
40 | 0 | B4
41 | 397 | B5
42 | 0 | B6

The binders below were run against T7, Bzz1-2, P38822 (assay: SPOT array). Conditions: median of control spots 4538.

Row | SPOT intensity | Binder
43 | 5 | B1
44 | 0 | B2
45 | 0 | B3
46 | 0 | B4
47 | 5 | B5
48 | 0 | B6

These binders were tested against Sho1, P40073 (assay: SPOT array). Conditions: median of control spots 1148.
Sequence of Sho1, P40073 (P40073 287-367): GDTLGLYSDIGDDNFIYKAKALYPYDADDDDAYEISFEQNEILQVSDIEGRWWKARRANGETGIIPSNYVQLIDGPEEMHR

Row | SPOT intensity | Binder
49 | 84 | B1
50 | 0 | B2
51 | 11 | B3
52 | 0 | B4
53 | 12 | B5
54 | 0 | B6

The binders below were run against T8, Boi2, P39969 (assay: SPOT array). Conditions: median of control spots 1161.

Row | SPOT intensity | Binder
55 | 0 | B1
56 | 0 | B2
57 | 0 | B3
58 | 0 | B4
59 | 1 | B5
60 | 0 | B6

Each binder was assayed against Bem1-1, P29366 (assay: SPOT array). Conditions: median of control spots 4282.
Sequence of Bem1-1, P29366 (P29366 55-141): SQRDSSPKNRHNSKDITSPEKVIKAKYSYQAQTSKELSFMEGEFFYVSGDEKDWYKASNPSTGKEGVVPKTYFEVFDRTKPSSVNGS

Row | SPOT intensity | Binder
61 | 0 | B1
62 | 0 | B2
63 | 0 | B3
64 | 0 | B4
65 | 0 | B5
66 | 3 | B6

Each binder was assayed against T9, Lsb3, P43603 (assay: SPOT array). Conditions: median of control spots 406.

Row | SPOT intensity | Binder
67 | 155 | B1
68 | 0 | B2
69 | 1 | B3
70 | 0 | B4
71 | 0 | B5
72 | 46 | B6

What follows are binders tested against T10, Boi1, P38041 (assay: SPOT array). Conditions: median of control spots 1162.

Row | SPOT intensity | Binder
73 | 7 | B1
74 | 0 | B2
75 | 0 | B3
76 | 0 | B4
77 | 0 | B5
78 | 0 | B6

What follows are binders tested against T11, Cdc25, P04821 (assay: SPOT array). Conditions: median of control spots 969.

Row | SPOT intensity | Binder
79 | 35 | B1
80 | 0 | B2
81 | 18 | B3
82 | 0 | B4
83 | 0 | B5
84 | 0 | B6

These binders were tested against Myo3, P36006 (assay: SPOT array). Conditions: median of control spots 468.

Row | SPOT intensity | Binder
85 | 0 | B1
86 | 557 | B2
87 | 0 | B3
88 | 497 | B4
89 | 0 | B5
90 | 367 | B6

Each binder was assayed against T12, Sla1-2, P32790 (assay: SPOT array). Conditions: median of control spots 712.

Row | SPOT intensity | Binder
91 | 0 | B1
92 | 0 | B2
93 | 0 | B3
94 | 0 | B4
95 | 0 | B5
96 | 0 | B6

What follows are binders tested against Bem1-2, P29366 (assay: SPOT array). Conditions: median of control spots 4347.
Sequence of Bem1-2, P29366 (P29366 139-227): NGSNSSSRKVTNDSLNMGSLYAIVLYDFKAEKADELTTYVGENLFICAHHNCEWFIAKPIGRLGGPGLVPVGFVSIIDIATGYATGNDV

Row | SPOT intensity | Binder
97 | 0 | B1
98 | 84 | B2
99 | 1 | B3
100 | 0 | B4
101 | 2 | B5
102 | 0 | B6

These binders were tested against GST (assay: SPOT array). Conditions: median of control spots 978.

Row | SPOT intensity | Binder
103 | 1 | B1
104 | 0 | B2
105 | 0 | B3
106 | 0 | B4
107 | 2 | B5
108 | 3 | B6

Each binder was assayed against T13, Fus1, P11710 (assay: SPOT array). Conditions: median of control spots 1200.

Row | SPOT intensity | Binder
109 | 0 | B1
110 | 0 | B2
111 | 0 | B3
112 | 0 | B4
113 | 1 | B5
114 | 0 | B6

The binders below were run against T14, Nbp2, Q12163 (assay: SPOT array). Conditions: median of control spots 357.

Row | SPOT intensity | Binder
115 | 0 | B1
116 | 0 | B2
117 | 1 | B3
118 | 0 | B4
119 | 0 | B5
120 | 0 | B6

These binders were tested against T15, Bbc1, P47068 (assay: SPOT array). Conditions: median of control spots 796.

Row | SPOT intensity | Binder
121 | 13 | B1
122 | 0 | B2
123 | 23 | B3
124 | 0 | B4
125 | 3 | B5
126 | 3 | B6

The binders below were run against T16, Pin3, Q06449 (assay: SPOT array). Conditions: median of control spots 2171.

Row | SPOT intensity | Binder
127 | 0 | B1
128 | 0 | B2
129 | 0 | B3
130 | 0 | B4
131 | 0 | B5
132 | 0 | B6

These binders were tested against T17, Bzz1-1, P38822 (assay: SPOT array). Conditions: median of control spots 4446.

Row | SPOT intensity | Binder
133 | 0 | B1
134 | 0 | B2
135 | 0 | B3
136 | 0 | B4
137 | 1 | B5
138 | 12 | B6

What follows are binders tested against T18, Pex13, P80667 (assay: SPOT array). Conditions: median of control spots 1341.

Row | SPOT intensity | Binder
139 | 16 | B1
140 | 0 | B2
141 | 0 | B3
142 | 0 | B4
143 | 0 | B5
144 | 0 | B6

What follows are binders tested against T19, Hof1, Q05080 (assay: SPOT array). Conditions: median of control spots 4086.

Row | SPOT intensity | Binder
145 | 1 | B1
146 | 0 | B2
147 | 0 | B3
148 | 0 | B4
149 | 0 | B5
150 | 0 | B6

The binders below were run against T20, Lsb1, P53281 (assay: SPOT array). Conditions: median of control spots 388.

Row | SPOT intensity | Binder
151 | 5 | B1
152 | 0 | B2
153 | 0 | B3
154 | 0 | B4
155 | 0 | B5
156 | 0 | B6

These binders were tested against T21, Hse1, P38753 (assay: SPOT array). Conditions: median of control spots 1727.

Row | SPOT intensity | Binder
157 | 8 | B1
158 | 13 | B2
159 | 0 | B3
160 | 3 | B4
161 | 1 | B5
162 | 0 | B6
